For one protein, Km, kcat and kcat/Km results are on record in publication PMC6131205, “Controlling the regioselectivity and stereospecificity of FAD-dependent polyamine oxidases with the use of amine-attached guide molecules as conformational modulators” (Bioscience Reports, 2018).

Holding throughout (test): purified protein, by the assay type;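 also: recombinant polyamine oxidases incubated with substrate, product amines (putrescine, 1,3-diaminopropane or butane-1,3-diamine) quantified by HPLC after post-column o-phthalaldehyde derivatization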
Substrate in data set [1]: CC(=O)NC(C)CCNCCCCN
The note with it: other: Supplementary Table 1, pH 9.0, 100 mM Glycine-NaOH, 25°C, Put formation.

Substrate in data set [2]: CC(=O)NCCCCNCCCN
Conditions: other: substrate alone, no aldehyde, pH 9.0, 25°C.

Substrate in data set [3]: CC(=O)NCCCNCCCCN
Conditions: other: substrate alone, no aldehyde, pH 9.0, 25°C.

Substrate in data set [4]: CC(=O)N[C@@H](C)CCNCCCCN
Conditions: other: Supplementary Table 1, pH 9.0, 100 mM Glycine-NaOH, 25°C, Put formation.

Substrate in data set [5]: CC(=O)N[C@H](C)CCNCCCCN
The note with it: other: Supplementary Table 1, pH 9.0, 100 mM Glycine-NaOH, 25°C, Put formation.

Substrate in data set [6]: CC(N)CCNCCCCN
The note with it: other: Supplementary Table 2, pH 9.0, 25°C.

Substrate in data set [7]: NCCCCNCCCN
The note with it: other: substrate alone, no aldehyde, pH 9.0, 25°C.

Values joined by “and” are separate entries in the source; they are usually repeats but may differ in a detail not shown here. Identical values can stand only once.

B1: Fms1 (Saccharomyces cerevisiae S288C) (protein)
chain: MNTVSPAKKKVIIIGAGIAGLKAASTLHQNGIQDCLVLEARDRVGGRLQTVTGYQGRKYDIGASWHHDTLTNPLFLEEAQLSLNDGRTRFVFDDDNFIYIDEERGRVDHDKELLLEIVDNEMSKFAELEFHQHLGVSDCSFFQLVMKYLLQRRQFLTNDQIRYLPQLCRYLELWHGLDWKLLSAKDTYFGHQGRNAFALNYDSVVQRIAQSFPQNWLKLSCEVKSITREPSKNVTVNCEDGTVYNADYVIITVPQSVLNLSVQPEKNLRGRIEFQPPLKPVIQDAFDKIHFGALGKVIFEFEECCWSNESSKIVTLANSTNEFVEIVRNAENLDELDSMLEREDSQKHTSVTCWSQPLFFVNLSKSTGVASFMMLMQAPLTNHIESIREDKERLFSFFQPVLNKIMKCLDSEDVIDGMRPIENIANANKPVLRNIIVSNWTRDPYSRGAYSACFPGDDPVDMVVAMSNGQDSRIRFAGEHTIMDGAGCAYGAWESGRREATRISDLLK
B1: the Michaelis constant (Km) (in general, the concentration of substrate that gives half-maximal velocity) in data set [1] was 140 ± 23 µM; in data set [2], 122 ± 18 µM; in data set [3], 42 ± 8 µM; in data set [4] it was 109 ± 18 µM; in data set [5], 155 ± 29 µM; in data set [6] (Put formation), 502 µM and 555 µM. Moreover, the Km in data set [6] (butane-1,3-diamine formation) was 467 µM and 606 µM; in data set [7] it was 534 ± 36 µM and 643 ± 52 µM. The kcat (in general, the number of substrate molecules converted per active site and unit of time at saturation) in data set [2] was 1.4 ± 0.1 s⁻¹; in data set [3], 65 ± 2 s⁻¹; in data set [6] (Put formation), 0.014 ± 0 s⁻¹ and 0.011 ± 0 s⁻¹; in data set [6] (butane-1,3-diamine formation) it was 0.006 ± 0 s⁻¹ and 0.013 ± 0 s⁻¹. The kcat/Km – broadly, the second-order rate constant that governs catalysis at low substrate concentration – was “(12 ± 1.8) × 10^3 M^−1s^−1” in data set [2]; “(1600 ± 300) × 10^3 M^−1s^−1” in data set [3]; 28 M⁻¹ s⁻¹ and 20 M⁻¹ s⁻¹ in data set [6] (Put formation); 13 M⁻¹ s⁻¹ and 22 M⁻¹ s⁻¹ in data set [6] (butane-1,3-diamine formation).
